Consider twelve substances from paper PMC4760761.

What is called Kd is the constant that tells how readily two partners part at equilibrium. High values mean lower affinity, low ones higher affinity.

In this series the target is T1, CodY-6His (Listeria monocytogenes) (UniProt A0A0H3GGF1).
T1 sequence: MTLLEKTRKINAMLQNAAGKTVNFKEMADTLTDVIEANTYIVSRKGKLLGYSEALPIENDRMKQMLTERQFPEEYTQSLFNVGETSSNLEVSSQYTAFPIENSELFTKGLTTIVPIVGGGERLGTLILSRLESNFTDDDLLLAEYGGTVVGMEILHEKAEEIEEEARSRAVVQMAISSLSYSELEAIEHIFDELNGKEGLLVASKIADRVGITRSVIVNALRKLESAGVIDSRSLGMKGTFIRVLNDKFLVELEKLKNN
Description: EMSA. The following applies: EMSA: 20 mM Tris-Cl pH 8, 50 mM KCl, 2 mM MgCl2, 0.5 mM EDTA, 1 mM DTT, 0.05% NP-40, 5% glycerol, 25 ug/ml salmon sperm DNA, 4 ng DIG-DNA, 15 min room …. In general terms: A gel shift assay detects complexes by their altered migration in electrophoresis.

“AAAAGTAACATTTATTTTTCAGAAAAAATTTTTTAATTTTTACCGCGATGGATTCATTCGCGGTTTTTTTGTATGTAATGCATTGGTATATAAGGCTTTATCTATAATGTTAGATTATCTAACATAAATTTGACAAAACATCTAACGTACATTATAATGCTACTATCATCAAAAAAATAATTATGTTTTGAGGGGGAATTGTCGTGAGCGAAAAGGAAATCCGGAGATCGATGCCGCTTTTTCCAATTGGGCCTGTGATGAAGCTAACTGATCTCACTGCTAGACAAATTCGCTACTATG (double strand) [glnR upstream probe]” came in with a Kd of 74 nM. This counts as double-digit nanomolar.
With “AACCGTCACTTGTGGCGGTTTTTTTGTGTTTTCATCTTTGTGAATTAATTTTGATTTCTTTTAAAATTGGTTATAACTCTCGCGAATTGGGGTAAAAGTAAAGAGGCAGATGAAGATACATTGTGAAAAATTGATATGATAGGACAAGTCGTTTGATTGACAGCGTTTTCTTGATATGATTAAATAGACTCAAGTTAATTAACATGTCAGGAGAAGAGATGACAATCGAAACGATGCAAGGGTACTAGTGTGCCTACGTTTTGATTGTCATTCTTTTTTTGAAGTTAATTGATAATCGGAATGTAAGGGGACTAGTAAGTGTTAAAATTCCGGTGCTACAAATAAGCAAGAAGAAGGAGTTGGAAAAGATGATTGACACAAGTTTAGCAACACAATTTCTAGGTGAAGTCATTGGTACGGCTATACTAATTATTTTAGGTGCTGGTGTCGTAGCAGGTGTTTCACTGAAAAGATCCAAAGCAGAGAATG (double strand) [glpF (LMRG_01431) upstream probe]” the figure was 114 nM.
With “ATTCAACCCTCTTTCAAAATTCTTTTTCCCAAGTGCTTTAAATGGTACACTAATTATACCATAAGCAACTATTTTTCTATTCATTATTTACAAAAACGCTTTAACGTGCTAATATGCTAATAAACTAAAATATCGTAAAGGAGCTAACCAGATGAACTTAAATAAGAACTTACCAACTGGAACACGTGATAAACTTTTTCGTGAAGCACGAGCTGCATACAAAATTGAGCAACAAGTGAATCATTATTTT (double strand) [hisZ (LMRG_00251) upstream probe]” the figure was 150 nM; with “ATTCGCTCAACTCCTTCAATATAACTTCAATAACAAGTATAGCAGTTTTATGAACAGGAACCAATTTATTACTATTTGAAATGATTATTTTTATTTAGAAATGTATTTTTAAGCATAATTATGAATAAATGAAAATAAAAAGGTTGATATCTAAAAGCATCGATGTTAATATAAATACAAATGTTTGTATATTTATGAATAGGGGATGTTTAAAATGGCGAAAGAAAAAATCGTATTAGCTTACTCAGGTGGGTTAGATACTTCTGTGGCAATTCAGTGGTTAGTAGAATCAGGTTATGAAGTTATTGCATGTT (double strand) [argG (LMRG_01241) upstream probe]”, 70 nM.
With “CATTAAATCCTCCCTCTTCCCATTATTACCTTTCAATATCCTTAATGGACATTTAACATCTATATACAATACACCCATTTTTTTTAAAGTGCAAGAGTTTTTTACTAAAAATGGAAAAAAATTTAATGAATGCGTTTGCTGCGAATAGAACAACTATAAGCATTGTCTCAAAAATTTTTCCTGGCTAAGAAAAAAACTGGAATAATTTTCGAAAACAAACGTGCTAATCTTATACATGTTCCAACAAACAATTACTTAGGAGGTGCTTTTCTCGTGTTAACTGATGATGTTCCAAAAAAATCACATTTACCATTAATTAAGCATCATTCTAATTACTTATAGCTTCGTTTAGTTGTATTTTCGCAAACAAAAAATTGGGAGGTAACATACAATGTCTAAACAAGCAAAGTCTTTAACCTTATTCGGATTTTTCGCCATCACGGCTTCCATGGTTATGACCGTTTATGAATATCCAACATTTGCCACTTCCG (double strand) [gadC-gadG (LMRG_01480) upstream probe]” the figure was 25 nM; with “CTTCTATATCTACTCATTAAAACCTAAGCAAACGTTCTCATTAACTACATTTTAAAAAATTTCAGAAAAATTGGTTTTTATGCTTGAAAATATTCTCAACAATGTGTAAACTAACAACATAGGTAAGAAAAGTTGACCAAATTTCAGAAAAATTTACTTAACGCACACAAGCCAATGTTTTTCTTCTTTATAACATTGCATGTATTTGCGTCAGGTTTTCTACTTTTCCTTATAGTCAAAATATTTAAACAAGGAGCGATTATAGTATGGCACAAACATCCACTATCCAAAACGACACAAAGGCAGCCGAAGAATACGCAGCTCGAGTGTTTGAAACAATTAAACAACGGAATCCTGGCGAAACGGAATTCCACCAAGCAGTTGAAGAATTCTTAAACTCTGTTATCCCAGCCCTTGCAAAAGAACCTAAATACGAAGCAAATGGCATTTTAGAACAGTTAACAGAACCCGAACGCCTTATCAGTTTCCGAGTTCCATGGGTGGATGATTCTGGCA (double strand) [gdhA (LMRG_00242) upstream probe]”, 57 nM; with “GAAGAAGTGAAGACGTACCTCATTCTTTAGAGAGCATTTACTGGTGAGTAAACGTATTTAAAGAGTGGAGCGTTTTTATTTTTGAATGTTTTAATTTTATTAGTTAGGGTAAAATCGACAGTATACTTAAAATTAGATGGGGTGAAGTGATGAATATTAGTATAGAAATAAAAGAACGTGATACTGACCACATAGACATATTTGTTGCTGGGGAGATCGATGCTTATACAGCGCCAAAGGTAAAAGAAGCATTAGAAGTATATCAAGTTAAAGAGGG (double strand) [rsbV-sigB (LMRG_02317) upstream probe]”, 152 nM.
The substance “GTTAATTGCCTCCATTAATATACATATTATAGTTACCATTTTACTATAAAAAAGAACAACTTGACAGAAAAAAAGTGATTAAAAACAGCTCCAGCACTTATTTCCGTGTATCAATACAGAGGTAAAAAGGCATGCCACTTAGGCAAAAGACGGCTATGCTCTTAAGAAATTTTTTTGCTGTTATACCCTACTATTTTGCTATTCTAACAGCAATTTCAAAAAAACACTTCATATTAAGGTCTGTTCGTGATAAAATGAACATAGTTGATAATGATTATCATGTTCATTACATAACATAAAAGGAGGCCTGCTAGCTTATGCAATTAAATGAAACTGCTGTCGGTGAAAAAGTTCGCATCTCAGAATTAAAAATTGAGAACGCTATGCTTAAACGTCGCTTACTTGCACTTGGTTGCGATGAAGGTTGTGATATTTGTATCAAACAAAAAGGACTATTTGGTG (double strand) [feoA (LMRG_01257) upstream probe]” showed an equilibrium dissociation constant (Kd) of 90 nM.
With “TATAATTCTCCTTTAATAGTTTAATGTTGGTTAAACTAGCTGAAGGATTGAAGAGTTTATTTCACTCTTACTTTCTAAACAATCCTAAAGCCATTGTTAGAAAGTCGAGAGCAGTGCAATTTTGTTTGCATCTCTTTGATCACCACCTTGCCTTCATTATAAGCACTTCTGAATTGTTCGTCAATTCTCTTTTATGAATACTCTTCTAAAAACAGGGTAAACGAAAACTATTGGACATTAGAGAAAACATCCATGGGAGGAGAAAGTAAAATGAAAAAAGTAAAAGCAAGTGAAACACTCGTACAAACATTAAAAAATTGGGGTATCGACCACGTATATGGCTTGCCCGGCGATTCGATTGACACCGTAGTTGACGCTTTACGAAAAGAAC (double strand) [poxB (LMRG_00411) upstream probe]” the figure was 55 nM.
The substance “TTAACAAATGTTAGAGAAAAATTAATTCTCCAAGTGATATTCTTAAAATAATTCATGAATATTTTTTCTTATATTAGCTAATTAAGAAGATAATTAACTGCTAATCCAATTTTTAACGGAATAAATTAGTGAAAATGAAGGCCGAATTTTCCTTGTTCTAAAAAGGTTGTATTAGCGTATCACGAGGAGGGAGTATAAGTGGGATTAAATAGATTTATGCGTGCGATGATGGTAGTTTTCATTACTGCCAACTGCATTACGATTAACCCCGACATAATATTTGCAGCGACAGATA (double strand) [actA (LMRG_02626) upstream probe]” yielded a Kd of 208 nM.
As for fliN (LMRG_02874) upstream probe, the Kd stood at 26 nM.
The result for glnR upstream probe reads 74 nM.
